Reference: patent US20160185837A1 (Medimmune Limited, priority 2013, published 2016)
Read-outs that look alike come from different tables or passages of the source.

T1: human GIP receptor (hGIPr) (Homo sapiens, UniProt P48546)
T1 construct: expressed in transfected cells
T1 sequence (P48546 22-466): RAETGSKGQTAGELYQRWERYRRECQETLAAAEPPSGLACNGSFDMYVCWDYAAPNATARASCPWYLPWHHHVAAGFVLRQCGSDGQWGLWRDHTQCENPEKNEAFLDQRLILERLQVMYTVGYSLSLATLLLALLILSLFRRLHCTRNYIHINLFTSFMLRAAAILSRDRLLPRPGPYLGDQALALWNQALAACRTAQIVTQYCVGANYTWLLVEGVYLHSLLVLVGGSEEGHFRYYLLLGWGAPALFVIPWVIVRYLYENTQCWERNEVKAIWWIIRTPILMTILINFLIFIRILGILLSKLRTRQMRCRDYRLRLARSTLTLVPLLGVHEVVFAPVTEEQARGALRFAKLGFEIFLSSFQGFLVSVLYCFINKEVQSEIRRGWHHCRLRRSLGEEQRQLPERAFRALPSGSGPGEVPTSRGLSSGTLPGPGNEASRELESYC

T2: mouse GLP-1 receptor (mGLP-1r) (Mus musculus, UniProt O35659)
T2 construct: expressed in transfected cells; host or cells: HEK293s or CHO cells
T2 sequence (O35659 22-463): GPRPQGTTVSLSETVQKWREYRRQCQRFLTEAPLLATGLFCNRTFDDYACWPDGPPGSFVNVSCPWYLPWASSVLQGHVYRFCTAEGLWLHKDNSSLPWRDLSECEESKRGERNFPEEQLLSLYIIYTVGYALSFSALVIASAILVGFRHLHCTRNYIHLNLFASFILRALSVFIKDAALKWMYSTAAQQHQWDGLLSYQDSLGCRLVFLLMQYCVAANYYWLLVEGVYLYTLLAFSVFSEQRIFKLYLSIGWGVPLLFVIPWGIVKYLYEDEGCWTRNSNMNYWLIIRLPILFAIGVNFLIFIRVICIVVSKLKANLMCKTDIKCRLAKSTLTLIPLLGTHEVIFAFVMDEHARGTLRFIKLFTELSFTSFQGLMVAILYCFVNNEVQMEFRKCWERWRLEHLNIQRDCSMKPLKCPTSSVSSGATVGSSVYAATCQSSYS

T3: mouse GIP receptor (mGIPr) (Mus musculus, UniProt Q0P543)
T3 construct: expressed in transfected cells; host or cells: HEK293s or CHO cells
T3 sequence (Q0P543 19-460): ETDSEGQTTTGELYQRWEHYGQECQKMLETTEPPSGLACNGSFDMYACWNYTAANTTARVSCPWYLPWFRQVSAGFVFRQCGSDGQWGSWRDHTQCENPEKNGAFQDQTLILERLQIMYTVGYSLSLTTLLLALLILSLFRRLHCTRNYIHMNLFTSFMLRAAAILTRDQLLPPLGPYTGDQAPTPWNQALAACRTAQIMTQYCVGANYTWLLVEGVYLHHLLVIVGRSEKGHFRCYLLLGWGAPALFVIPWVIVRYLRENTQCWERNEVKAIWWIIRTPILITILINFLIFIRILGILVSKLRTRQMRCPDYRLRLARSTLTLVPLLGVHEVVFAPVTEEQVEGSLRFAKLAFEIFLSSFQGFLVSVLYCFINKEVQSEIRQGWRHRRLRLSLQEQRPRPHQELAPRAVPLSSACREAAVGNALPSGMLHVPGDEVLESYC

T4: rat GLP-1 receptor (rGLP-1r) (Rattus norvegicus, UniProt P32301)
T4 construct: expressed in transfected cells; host or cells: HEK293s or CHO cells
T4 sequence (P32301 22-463): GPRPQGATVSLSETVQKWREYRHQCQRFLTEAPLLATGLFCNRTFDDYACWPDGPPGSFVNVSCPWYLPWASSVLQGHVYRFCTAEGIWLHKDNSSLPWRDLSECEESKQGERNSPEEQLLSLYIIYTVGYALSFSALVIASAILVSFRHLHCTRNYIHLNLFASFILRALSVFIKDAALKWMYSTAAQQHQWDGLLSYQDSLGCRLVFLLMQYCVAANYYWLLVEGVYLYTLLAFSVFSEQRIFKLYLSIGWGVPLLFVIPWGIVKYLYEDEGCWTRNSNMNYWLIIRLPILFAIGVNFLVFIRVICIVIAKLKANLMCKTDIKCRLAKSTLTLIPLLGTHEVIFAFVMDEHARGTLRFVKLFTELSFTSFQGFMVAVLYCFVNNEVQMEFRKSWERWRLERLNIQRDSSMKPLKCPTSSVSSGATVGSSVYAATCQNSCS

T5: rat GIP receptor (rGIPr) (Rattus norvegicus, UniProt P43219)
T5 construct: expressed in transfected cells; host or cells: HEK293s or CHO cells
T5 sequence (P43219 19-455): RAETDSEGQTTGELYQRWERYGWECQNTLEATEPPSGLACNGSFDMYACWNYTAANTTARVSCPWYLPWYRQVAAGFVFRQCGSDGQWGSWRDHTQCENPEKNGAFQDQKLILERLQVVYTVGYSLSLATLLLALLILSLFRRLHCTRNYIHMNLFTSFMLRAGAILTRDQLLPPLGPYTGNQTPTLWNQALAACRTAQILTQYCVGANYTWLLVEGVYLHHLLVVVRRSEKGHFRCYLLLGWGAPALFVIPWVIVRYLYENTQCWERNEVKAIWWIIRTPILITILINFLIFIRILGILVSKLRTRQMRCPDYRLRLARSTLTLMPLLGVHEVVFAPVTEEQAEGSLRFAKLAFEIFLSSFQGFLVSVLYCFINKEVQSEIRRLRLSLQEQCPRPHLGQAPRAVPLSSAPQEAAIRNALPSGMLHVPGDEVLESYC


Assays:
Type in all cases: cell-based
[1] = target: T6, human GLP-1 receptor (hGLP-1r) (Homo sapiens, UniProt P43220); assay: BSA-cAMP assay, cells expressing human GLP-1 receptor; settings: BSA-cAMP assay
T6 construct: expressed in transfected cells
In short: (§1)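 EC50 came from an unconstrained 4-parameter logistic fit of HTRF cAMP data expressed as percent of maximal native agonist activation, tested on two occasions. Thawed receptor-expressing cells (hGLP-1r, hGIPr at 0.5×10^5 cells/ml) treated 30 min at room temperature in 0.1% BSA-containing medium; two distinct hGIPr lines.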

[2] = target: T1, human GIP receptor (hGIPr); assay: BSA-cAMP assay, cells expressing human GIP receptor; settings: BSA-cAMP assay
In short: as §1

[3] = target: T7, human glucagon receptor (GCGr) (Homo sapiens, UniProt P47871); assay: BSA-cAMP assay, cells expressing human glucagon receptor
T7 construct: expressed in transfected cells; host or cells: HEK293s or CHO cells
Experimental: (§2) One basic cAMP assays was performed, differing in the medium used for the assay, the “BSA-cAMP assay”:
(§3) BSA-based assay medium: 0.1% bovine serum albumin (BSA) in
(§4) In certain aspects, the assay can also be carried out in medium supplemented with serum albumin that corresponds to the receptor being tested, e.g., human serum albumin for testing cAMP activity at hGIPr or hGLP-1r, rat serum albumin for testing cAMP activity at rGIPr or rGLP-1r, and so on. […] All sample dilutions were made in duplicate.
(§5) A frozen cryo-vial of cells expressing the receptor of interest was thawed rapidly in a water-bath, transferred to pre-warmed assay media and spun at 240×g for 5 minutes. Cells were re-suspended in assay buffer at an optimized concentration (e.g., hGLP-1r and hGIPr cells at 0.5×10^5 cells/ml).
(§6) To this, 5 μL cell suspension was added and the plates incubated at room temperature for 30 minutes.
(§7) cAMP levels were measured using a commercially available cAMP dynamic 2 HTRF kit (Cisbio, Cat #62AM4PEJ), following the two step protocol as per manufacturer's recommendations. In brief; anti-cAMP cryptate (donor fluorophore) and cAMP-d2 (acceptor fluorophore) were made up separately by diluting each 1/20 in conjugate & lysis buffer provided in the kit. 5 μL anti-cAMP cryptate was added to all wells of the assay plate, and 5 μL cAMP-d2 added to all wells except non-specific binding (NSB) wells, to which conjugate and lysis buffer was added. […] Data was transformed to % Delta F as described in manufacturer's guidelines and then transformed to percent activation of maximal native agonist response and analysed by 4-parameter logistic fit to determine EC50 values.
(§8) We used unconstrained 4 parameter logistic fit of data, curve mid-point to determine EC50. This was tested on two occasions, not two batches.

[4] = target: T2, mouse GLP-1 receptor (mGLP-1r); assay: BSA-cAMP assay, cells expressing mouse GLP-1 receptor; settings: BSA-cAMP assay
Experimental: as §2, §3, §4, §5, §6, §7, §8
(§9) In order to be able to carry out in vivo studies in rodents, IP088 was tested for potency against the mouse receptors mGIPr and mGLP-1r as well as the rat receptors rGIPr and rGLP-1r, using cells expressing the respective receptors in the cAMP assay described above.

[5] = target: T3, mouse GIP receptor (mGIPr); assay: BSA-cAMP assay, cells expressing mouse GIP receptor; settings: BSA-cAMP assay
Experimental: as §2, §3, §4, §5, §6, §7, §8, §9

[6] = target: T4, rat GLP-1 receptor (rGLP-1r); assay: BSA-cAMP assay, cells expressing rat GLP-1 receptor; settings: BSA-cAMP assay
Experimental: as §2, §3, §4, §5, §6, §7, §8, §9

[7] = target: T5, rat GIP receptor (rGIPr); assay: BSA-cAMP assay, cells expressing rat GIP receptor; settings: BSA-cAMP assay
Experimental: as §2, §3, §4, §5, §6, §7, §8, §9

[8] = Batch 1, read-out: hGLP1r cAMP activity EC50
[9] = Batch 1, read-out: hGIPr cAMP activity EC50
[10] = Batch 1, read-out: hGCGr cAMP activity EC50
[11] = Batch 1, read-out: mGLP1r cAMP activity EC50
[12] = Batch 1, read-out: mGIPr cAMP activity EC50
[13] = Batch 1, read-out: rGLP1r cAMP activity EC50
[14] = Batch 1, read-out: rGIPr cAMP activity EC50
[15] = batch 1 unless a batch is given, read-out: cAMP activity hGLP1r (EC50)
[16] = batch 1 unless a batch is given, read-out: cAMP activity hGIPr (EC50)
[17] = batch 1 unless a batch is given, read-out: cAMP activity hGCGr (EC50)
[18] = read-out: cAMP activity mGLP1r (EC50)
[19] = read-out: cAMP activity mGIPr (EC50)
[20] = read-out: cAMP activity rGLP1r (EC50)
[21] = read-out: cAMP activity rGIPr (EC50)

T6 sequence (P43220 24-463): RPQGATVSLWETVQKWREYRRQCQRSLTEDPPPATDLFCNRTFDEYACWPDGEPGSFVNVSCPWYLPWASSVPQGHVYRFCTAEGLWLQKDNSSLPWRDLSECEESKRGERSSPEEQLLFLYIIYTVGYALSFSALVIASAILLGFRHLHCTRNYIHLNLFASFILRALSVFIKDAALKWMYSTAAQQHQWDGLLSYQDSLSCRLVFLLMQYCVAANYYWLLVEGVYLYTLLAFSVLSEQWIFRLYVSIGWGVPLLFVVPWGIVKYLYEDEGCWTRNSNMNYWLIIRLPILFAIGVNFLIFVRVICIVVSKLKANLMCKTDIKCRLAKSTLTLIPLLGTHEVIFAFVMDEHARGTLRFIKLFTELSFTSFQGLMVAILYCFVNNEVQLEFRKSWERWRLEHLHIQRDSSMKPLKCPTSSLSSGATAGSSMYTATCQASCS
T7 sequence (P47871 26-477): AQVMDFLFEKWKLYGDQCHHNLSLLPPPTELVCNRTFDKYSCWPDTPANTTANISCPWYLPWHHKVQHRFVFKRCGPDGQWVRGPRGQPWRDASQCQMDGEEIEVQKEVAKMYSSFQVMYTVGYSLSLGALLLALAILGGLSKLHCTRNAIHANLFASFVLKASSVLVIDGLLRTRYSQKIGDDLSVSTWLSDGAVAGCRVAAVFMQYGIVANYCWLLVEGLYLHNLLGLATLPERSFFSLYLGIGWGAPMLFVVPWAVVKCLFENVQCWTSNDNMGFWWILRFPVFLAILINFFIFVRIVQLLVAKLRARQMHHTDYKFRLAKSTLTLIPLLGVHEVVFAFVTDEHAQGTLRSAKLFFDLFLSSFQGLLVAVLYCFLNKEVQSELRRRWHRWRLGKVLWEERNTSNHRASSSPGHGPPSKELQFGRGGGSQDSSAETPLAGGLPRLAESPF

Molecule	EC50 [1, 8]	EC50 [2, 9]	EC50 [3, 10]	EC50 [4, 11]	EC50 [5, 12]	EC50 [6, 13]	EC50 [7, 14]	EC50 [1, 15]	EC50 [2, 16]	EC50 [3, 17]	EC50 [4, 18]	EC50 [5, 19]	EC50 [6, 20]	EC50 [7, 21]
IP376 (protein) YSEGTFTSLFSKLLERQAIDEFIAWLLKGGAAAGGSGSTASSGSGSATGGGGAATHTCPPC	2.4 nM	0.083 nM	> 7430 nM	21 nM	0.55 nM	1.3 nM	0.13 nM							
IP401 (protein) YSEGTHTSDLSKLLERQAIDEFIAWLLKGGAAAGGSGSTASSGSGSATGGGGAATHTCPPC	0.35 nM	3.5 nM	3100 nM	13 nM	3.6 nM	0.073 nM	0.014 nM							
IP351 (protein) YSEGTFISDYSIAMDKIHQQDFVNWLLAQKPSSGAPPPSGGGGSGGGGSGGGGSGGGGSACPPC	110 nM	0.0036 nM	130 nM	820 nM	0.0098 nM	210 nM	0.0063 nM							
IP247: Fc fusion, IgG1-TM, SEQ ID NO:117; agonist peptide YSEGTFTSDYSKLLEKIHQQLFIEWLVKGP (protein, also: Fc fusion, IgG1-TM, agonist peptide YSEGTFTSDYSKLLEKIHQQLFIEWLVKGP) YSEGTFTSDYSKLLEKIHQQLFIEWLVKGPAAAGGSGSTASSGSGSATGGGGAATHTCPPCPAPEF								63 nM	0.019 nM	> 420 nM	280 nM	2.3 nM	11 nM	0.03 nM

Second part, the molecule after the results:

EC50 [1, 8]	EC50 [2, 9]	EC50 [3, 10]	EC50 [4, 11]	EC50 [5, 12]	EC50 [6, 13]	EC50 [7, 14]	EC50 [1, 15]	EC50 [2, 16]	EC50 [3, 17]	EC50 [4, 18]	EC50 [5, 19]	EC50 [6, 20]	EC50 [7, 21]	Molecule
72 nM	0.0096 nM	24 nM	330 nM	0.017 nM	22 nM	0.0079 nM								IP321 (protein) YSEGTFISDYSIAMDKIHQQDFVNWLLAGGAAAGGSGSTASSGSGSATGGGGAATHTCPPC
							0.65 nM	2.2 nM	> 1400 nM	3.2 nM	260 nM	0.072 nM	10 nM	IP246: Fc fusion, IgG1-TM, SEQ ID NO:116; agonist peptide YSEGTFTSDYSKLLEGQAAKLFIEWLVKGP (protein, also: Fc fusion, IgG1-TM, agonist peptide YSEGTFTSDYSKLLEGQAAKLFIEWLVKGP) YSEGTFTSDYSKLLEGQAAKLFIEWLVKGPAAAGGSGSTASSGSGSATGGGGAATHTCPPCPAPEF
